Test results: patent US20190307868A1 (published 2019)

Molecular target: HLA-B08:01 (human)
Experiment: peptide-MHC-I complex dissociation half-life, 125I-b2m, 37 C
Description: Briefly, synthetic genes encoding biotinylated MHC-I heavy and light chains are expressed in E. coli and purified from inclusion bodies using standard methods. The light chain (β2m) is radio-labeled with iodine (¹²⁵I), and combined with the purified MHC-I heavy chain and peptide of interest at 18° C. to initiate pMHC-I complex formation. These reactions are carried out in streptavidin coated microplates to bind th biotinylated MHC-I heavy chains to the surface and allow measurement of radiolabeled light chain to monitor complex formation. Dissociation is initiated by addition of higher concentrations of unlabeled light-chain and incubation at 37° C. Stability is defined as the length of time in hours it takes for half of the complexes to dissociate, as measured by scintillation counts

B1: QVYRRKHQEL (EML4:ALK) (peptide)
peptide: QVYRRKHQEL
- Stability (T1/2 (h)): 0 h
